Patent US20240016902A1

Tests used:
[1] = target: HSPA8 (UniProt P11142); experiment: Flag-IP from HepG2 cell lysate, mass spectrometry of eluate
[2] = target: TUBA1C (UniProt Q9BQE3); experiment: as above
[3] = target: TUBB (UniProt P07437); experiment: as above
[4] = target: SPTBN1 (UniProt Q01082); experiment: as above
[5] = target: WDR77 (UniProt Q9BQA1); experiment: as above
[6] = target: POTEE (UniProt Q6S8J3); experiment: as above
[7] = target: PRMT5 (UniProt O14744); experiment: as above
[8] = target: TUBA1B (UniProt P68363); experiment: as above
[9] = target: SPTAN1 (accession Q13813-3) (UniProt Q13813); experiment: as above
[10] = target: TUBB4B (UniProt P68371); experiment: as above
[11] = target: FLNA (UniProt P21333); experiment: as above
[12] = target: HSPA8 (UniProt P11142); experiment: Flag-IP from HeLa cell lysate, mass spectrometry of eluate
[13] = target: TUBA1C (UniProt Q9BQE3); experiment: as above
[14] = target: TUBB (UniProt P07437); experiment: as above
[15] = target: SPTBN1 (UniProt Q01082); experiment: as above
[16] = target: KRT1 (UniProt P04264); experiment: as above
[17] = target: EIF4B (UniProt P23588); experiment: as above
[18] = target: PRMT5 (UniProt O14744); experiment: as above
[19] = target: TUBA1B (UniProt P68363); experiment: as above
[20] = target: TUBB4B (UniProt P68371); experiment: as above
[21] = target: SPTAN1 (accession Q13813-2) (UniProt Q13813); experiment: as above
[22] = target: FLNA (UniProt P21333); experiment: as above
[23] = target: HSPA1A (UniProt P0DMV8); experiment: as above
[24] = target: DBN1 (UniProt Q16643); experiment: Flag-IP from HepG2 cell lysate, mass spectrometry of eluate
[25] = target: VIL1 (UniProt P09327); experiment: as above
[26] = target: EIF4B (UniProt P23588); experiment: as above
[27] = target: SPTAN1 (accession Q13813-2) (UniProt Q13813); experiment: as above
[28] = target: SPTAN1 (accession Q13813) (Homo sapiens (Human)) (UniProt Q13813); experiment: Flag-IP from HeLa cell lysate, mass spectrometry of eluate
[29] = target: WDR77 (UniProt Q9BQA1); experiment: as above
[30] = target: TUBA1A (UniProt Q71U36); experiment: as above

Chain of HSPA8 (P11142 2-646 limits assumed): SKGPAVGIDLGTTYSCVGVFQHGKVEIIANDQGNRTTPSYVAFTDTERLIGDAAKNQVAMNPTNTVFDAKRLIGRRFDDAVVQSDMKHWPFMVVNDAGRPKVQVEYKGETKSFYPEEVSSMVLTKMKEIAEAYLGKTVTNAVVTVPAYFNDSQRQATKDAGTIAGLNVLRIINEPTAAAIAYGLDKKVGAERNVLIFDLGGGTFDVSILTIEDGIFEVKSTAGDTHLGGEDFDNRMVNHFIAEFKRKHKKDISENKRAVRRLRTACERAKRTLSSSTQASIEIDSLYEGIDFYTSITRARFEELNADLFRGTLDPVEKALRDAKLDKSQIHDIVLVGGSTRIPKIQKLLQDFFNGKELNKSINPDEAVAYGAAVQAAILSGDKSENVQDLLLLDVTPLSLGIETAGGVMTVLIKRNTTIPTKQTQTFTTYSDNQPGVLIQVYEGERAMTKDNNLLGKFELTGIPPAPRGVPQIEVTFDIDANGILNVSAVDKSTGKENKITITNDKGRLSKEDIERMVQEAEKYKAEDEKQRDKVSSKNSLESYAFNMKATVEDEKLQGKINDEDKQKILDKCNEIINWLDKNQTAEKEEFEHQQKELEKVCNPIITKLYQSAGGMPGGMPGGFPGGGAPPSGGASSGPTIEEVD
Chain of Flag-AtRDR1 (Arabidopsis thaliana RNA-dependent RNA polymerase 1 with Flag tag) (Q9LQV2 whole entry): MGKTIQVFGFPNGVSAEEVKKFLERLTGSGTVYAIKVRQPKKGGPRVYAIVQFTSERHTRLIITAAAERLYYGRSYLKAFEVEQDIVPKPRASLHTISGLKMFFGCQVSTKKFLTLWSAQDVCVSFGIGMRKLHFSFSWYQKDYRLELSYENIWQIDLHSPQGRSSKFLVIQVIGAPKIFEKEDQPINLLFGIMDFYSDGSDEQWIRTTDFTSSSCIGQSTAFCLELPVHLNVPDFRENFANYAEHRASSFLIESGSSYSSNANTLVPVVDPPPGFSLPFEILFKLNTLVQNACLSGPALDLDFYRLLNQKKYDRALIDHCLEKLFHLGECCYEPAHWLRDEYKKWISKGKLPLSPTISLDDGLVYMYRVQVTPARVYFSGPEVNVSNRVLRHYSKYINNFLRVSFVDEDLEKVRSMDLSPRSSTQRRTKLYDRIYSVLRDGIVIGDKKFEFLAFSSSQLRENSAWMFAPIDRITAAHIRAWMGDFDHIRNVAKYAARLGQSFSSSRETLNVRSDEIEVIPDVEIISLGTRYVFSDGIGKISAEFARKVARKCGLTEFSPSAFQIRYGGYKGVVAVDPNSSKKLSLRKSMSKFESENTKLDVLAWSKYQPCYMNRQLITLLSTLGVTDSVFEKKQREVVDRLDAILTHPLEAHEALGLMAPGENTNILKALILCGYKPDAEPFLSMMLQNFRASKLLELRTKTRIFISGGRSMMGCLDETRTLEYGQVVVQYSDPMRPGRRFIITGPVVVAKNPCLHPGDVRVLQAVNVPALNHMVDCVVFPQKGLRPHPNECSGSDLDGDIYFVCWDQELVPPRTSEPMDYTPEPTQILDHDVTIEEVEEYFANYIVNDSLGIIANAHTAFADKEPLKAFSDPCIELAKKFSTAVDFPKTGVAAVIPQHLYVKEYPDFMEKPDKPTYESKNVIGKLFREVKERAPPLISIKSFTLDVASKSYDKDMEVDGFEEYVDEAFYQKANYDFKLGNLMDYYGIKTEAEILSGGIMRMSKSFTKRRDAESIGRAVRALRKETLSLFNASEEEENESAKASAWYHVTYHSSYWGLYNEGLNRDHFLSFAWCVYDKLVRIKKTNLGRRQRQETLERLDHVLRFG
Chain of TUBB4B (P68371 whole entry): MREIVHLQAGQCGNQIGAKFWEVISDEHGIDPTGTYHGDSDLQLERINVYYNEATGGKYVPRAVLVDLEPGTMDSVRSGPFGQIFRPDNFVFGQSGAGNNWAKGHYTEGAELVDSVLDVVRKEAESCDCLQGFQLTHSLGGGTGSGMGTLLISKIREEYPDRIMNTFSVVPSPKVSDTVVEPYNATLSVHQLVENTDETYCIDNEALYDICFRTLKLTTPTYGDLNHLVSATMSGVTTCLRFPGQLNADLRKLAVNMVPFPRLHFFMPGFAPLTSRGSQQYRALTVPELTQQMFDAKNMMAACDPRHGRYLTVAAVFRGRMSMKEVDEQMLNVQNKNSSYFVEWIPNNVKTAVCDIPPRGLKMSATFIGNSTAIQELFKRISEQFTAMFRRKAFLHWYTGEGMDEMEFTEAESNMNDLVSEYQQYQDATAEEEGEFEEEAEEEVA
Chain of TUBB (P07437 whole entry): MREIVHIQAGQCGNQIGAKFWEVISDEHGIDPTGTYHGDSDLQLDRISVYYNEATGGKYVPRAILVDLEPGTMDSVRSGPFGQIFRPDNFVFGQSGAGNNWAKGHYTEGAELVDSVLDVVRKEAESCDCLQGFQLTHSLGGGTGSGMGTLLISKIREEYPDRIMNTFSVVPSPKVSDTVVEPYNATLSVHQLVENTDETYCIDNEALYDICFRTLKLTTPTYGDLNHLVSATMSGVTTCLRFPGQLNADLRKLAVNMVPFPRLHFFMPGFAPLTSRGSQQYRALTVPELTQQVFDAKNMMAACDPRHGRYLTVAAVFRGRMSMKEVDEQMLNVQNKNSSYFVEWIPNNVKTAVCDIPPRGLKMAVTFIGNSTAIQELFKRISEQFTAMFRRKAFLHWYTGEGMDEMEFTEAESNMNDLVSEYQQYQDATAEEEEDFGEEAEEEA
Chain of TUBA1C (Q9BQE3 whole entry): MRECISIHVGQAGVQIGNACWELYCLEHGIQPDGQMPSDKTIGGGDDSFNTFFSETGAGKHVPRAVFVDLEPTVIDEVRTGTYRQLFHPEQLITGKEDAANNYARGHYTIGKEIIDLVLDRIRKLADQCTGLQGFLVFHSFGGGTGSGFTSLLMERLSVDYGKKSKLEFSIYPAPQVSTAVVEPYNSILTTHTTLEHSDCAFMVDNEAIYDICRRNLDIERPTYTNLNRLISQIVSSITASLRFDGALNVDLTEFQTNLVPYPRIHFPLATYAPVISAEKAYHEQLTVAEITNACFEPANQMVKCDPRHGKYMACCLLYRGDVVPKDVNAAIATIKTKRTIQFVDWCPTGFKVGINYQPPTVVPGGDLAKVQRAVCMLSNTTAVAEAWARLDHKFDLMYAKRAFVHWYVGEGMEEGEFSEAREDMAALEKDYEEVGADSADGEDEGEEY
Chain of EIF4B (P23588 whole entry): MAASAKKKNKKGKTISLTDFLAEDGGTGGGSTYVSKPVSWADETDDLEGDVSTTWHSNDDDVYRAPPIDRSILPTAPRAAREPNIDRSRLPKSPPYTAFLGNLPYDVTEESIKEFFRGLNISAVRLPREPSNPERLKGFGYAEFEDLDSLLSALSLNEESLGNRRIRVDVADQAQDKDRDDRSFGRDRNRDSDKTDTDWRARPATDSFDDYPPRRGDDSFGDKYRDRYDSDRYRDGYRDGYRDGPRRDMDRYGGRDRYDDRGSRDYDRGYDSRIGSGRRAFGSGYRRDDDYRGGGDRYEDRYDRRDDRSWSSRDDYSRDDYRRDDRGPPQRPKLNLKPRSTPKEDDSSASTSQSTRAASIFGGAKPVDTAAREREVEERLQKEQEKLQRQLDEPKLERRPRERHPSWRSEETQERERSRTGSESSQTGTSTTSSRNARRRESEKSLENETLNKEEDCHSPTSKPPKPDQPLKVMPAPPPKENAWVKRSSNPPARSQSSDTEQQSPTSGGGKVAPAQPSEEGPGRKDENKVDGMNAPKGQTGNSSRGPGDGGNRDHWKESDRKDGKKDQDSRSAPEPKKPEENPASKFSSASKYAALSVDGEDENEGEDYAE
Chain of POTEE (Q6S8J3 whole entry): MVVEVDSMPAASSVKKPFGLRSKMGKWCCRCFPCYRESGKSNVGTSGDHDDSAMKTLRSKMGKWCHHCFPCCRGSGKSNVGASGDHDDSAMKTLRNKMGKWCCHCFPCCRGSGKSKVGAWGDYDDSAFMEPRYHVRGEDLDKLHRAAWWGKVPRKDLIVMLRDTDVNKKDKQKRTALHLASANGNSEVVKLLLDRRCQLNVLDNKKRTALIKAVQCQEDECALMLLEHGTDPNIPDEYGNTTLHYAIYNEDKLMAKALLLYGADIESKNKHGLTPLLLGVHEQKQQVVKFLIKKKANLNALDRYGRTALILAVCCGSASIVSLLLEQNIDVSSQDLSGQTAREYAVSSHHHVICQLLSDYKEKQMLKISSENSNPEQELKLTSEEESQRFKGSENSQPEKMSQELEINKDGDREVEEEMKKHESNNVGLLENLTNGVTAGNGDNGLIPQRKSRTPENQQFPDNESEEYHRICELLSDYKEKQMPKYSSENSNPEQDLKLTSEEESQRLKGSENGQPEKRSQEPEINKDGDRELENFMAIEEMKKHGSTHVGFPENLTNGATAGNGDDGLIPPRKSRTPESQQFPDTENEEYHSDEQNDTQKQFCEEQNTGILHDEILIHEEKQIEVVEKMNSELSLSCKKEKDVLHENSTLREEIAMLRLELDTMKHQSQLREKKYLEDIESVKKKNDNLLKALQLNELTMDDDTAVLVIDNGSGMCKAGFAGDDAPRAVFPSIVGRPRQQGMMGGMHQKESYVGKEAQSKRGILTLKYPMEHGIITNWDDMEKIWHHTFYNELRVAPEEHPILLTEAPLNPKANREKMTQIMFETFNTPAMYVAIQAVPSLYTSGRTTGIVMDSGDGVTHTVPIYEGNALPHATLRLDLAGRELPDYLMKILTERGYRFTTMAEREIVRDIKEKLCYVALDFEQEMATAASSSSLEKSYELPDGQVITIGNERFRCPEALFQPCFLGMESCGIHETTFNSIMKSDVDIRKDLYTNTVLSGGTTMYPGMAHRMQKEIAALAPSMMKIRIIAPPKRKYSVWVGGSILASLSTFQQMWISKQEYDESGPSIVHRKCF

Substance “Flag-OsRDR1 (rice, Oryza sativa, RNA-dependent RNA polymerase 1 with Flag tag) (from UniProt Q0DXS3 1-740) (enzyme)” has a Coverage (%) [1] of 68%, a Length of peptide [1] of 34 and a Coverage (%) [2] of 55%. The Length of peptide [2] was 17, the Coverage (%) [3] was 66% and the Length of peptide [3] was 24. It also gave a Coverage (%) [4] of 48%, a Length of peptide [4] of 81 and a Coverage (%) [5] of 64%. It also gave a Length of peptide [5] of 15, a Coverage (%) [6] of 11% and a Length of peptide [6] of 9. For the same substance, the Coverage (%) [7] was 61%, the Length of peptide [7] was 31 and the Coverage (%) [8] was 62%. It also gave a Length of peptide [8] of 19, a Coverage (%) [9] of 47% and a Length of peptide [9] of 85. The Coverage (%) [10] was 66%, the Coverage (%) [11] was 32% and the Length of peptide [11] was 50. It also gave a Coverage (%) [12] of 36%, a Length of peptide [12] of 17 and a Coverage (%) [13] of 35%. For the same substance, the Length of peptide [13] was 11, the Coverage (%) [14] was 42% and the Length of peptide [14] was 15. The Coverage (%) [15] was 10%, the Length of peptide [15] was 16 and the Coverage (%) [16] was 32%. For the same substance, the Length of peptide [16] was 14, the Coverage (%) [17] was 26% and the Length of peptide [17] was 9. For the same substance, the Coverage (%) [18] was 37%, the Length of peptide [18] was 15 and the Coverage (%) [19] was 40%. For the same substance, the Length of peptide [19] was 12, the Coverage (%) [20] was 38% and the Length of peptide [20] was 14. It also gave a Coverage (%) [21] of 9%, a Length of peptide [21] of 16 and a Coverage (%) [22] of 12%. For the same substance, the Length of peptide [22] was 20, the Coverage (%) [23] was 26% and the Length of peptide [23] was 13.

In the case of “Flag-AtRDR1 (Arabidopsis thaliana RNA-dependent RNA polymerase 1 with Flag tag) (from UniProt Q9LQV2 1-1107) (enzyme)”, the Coverage (%) [24] is reported as 36%, the Coverage (%) [1] is reported as 56% and the Length of peptide [1] is reported as 27. For the same substance, the Coverage (%) [25] was 46%, the Length of peptide [25] was 26 and the Coverage (%) [4] was 45%. It also gave a Length of peptide [4] of 72, a Coverage (%) [26] of 37% and a Length of peptide [26] of 17. It also gave a Coverage (%) [5] of 66%, a Coverage (%) [6] of 9% and a Length of peptide [6] of 7. It also gave a Coverage (%) [7] of 59%, a Length of peptide [7] of 31 and a Coverage (%) [27] of 44%. For the same substance, the Length of peptide [27] was 83, the Coverage (%) [11] was 27% and the Length of peptide [11] was 38. For the same substance, the Coverage (%) [13] was 31%, the Length of peptide [13] was 10 and the Coverage (%) [14] was 29%. The Length of peptide [14] was 10, the Coverage (%) [15] was 12% and the Coverage (%) [17] was 33%. It also gave a Length of peptide [17] of 20, a Coverage (%) [28] of 16% and a Length of peptide [28] of 29. It also gave a Coverage (%) [29] of 44%, a Length of peptide [29] of 10 and a Coverage (%) [30] of 36%. The Coverage (%) [18] was 29%, the Length of peptide [18] was 12 and the Coverage (%) [20] was 25%. For the same substance, the Length of peptide [20] was 9, the Coverage (%) [22] was 20% and the Length of peptide [22] was 36. It also gave a Coverage (%) [23] of 17% and a Length of peptide [23] of 10.
